In US20250320312A1 (OXITOPE PHARMA B V, published 2025) one finds OD450 data, which are given here for six molecules.

Assay in all cases: scFv ELISA
(In general: ELISA stands for enzyme-linked immunosorbent assay.)

One test addresses BSA (UniProt P02769).
In test [1] the target is Peptide 1: Biotin-…-[Tyr(PC)]-acid.
Test [2] addresses Peptide 5: Biotin-…-[Tyr(PC)]-acid.
The target in test [3] is T1, Peptide 8: Biotin-AEAAAKEAAAKEAAAKEAAAKAAA-Tyr-acid (N-terminal biotin; C-terminal acid).
T1 construct: control peptide without PC
T1 peptide: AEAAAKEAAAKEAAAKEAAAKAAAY
The method, then: (§1) For ELISA analysis of scFv binding, 96-well polystyrene plates were coated with Peptide 1, 4, 5, 8 or 100 μL BSA (10 μg/mL) in PBS at 4° C. overnight. Plates were washed three times with PBS-Tween and blocked with 100 μL 1% BSA-TBS for 1 hour at room temperature. 96-well streptavidin coated plates were coated with 100 μL biotinylated PC-peptides (1 μg/mL) in PBS for 1 hour at room temperature.
(§2) All plates were washed three times with PBS-Tween before 40 μL aliquots of PPE were added to assay plates along with 50 μL 10% BSA, and plates were incubated for 1 hour at room temperature. After washing, […] HRP conjugated anti-V5 in 5% BSA was added, and plates were incubated at room temperature for 30 mins. Plates were washed and 100 μL TMB substrate was added. Color was left to develop at room temperature before the reaction was stopped with 100 μL 1N HCl. The amount of scFv bound to each well was quantitated from absorbance measurement at 450 nm (OD450).

Test [4] has as its target T2, Peptide 4: Biotin-AGGGGSGGGGSGGGGSAAA-Tyr-acid (N-terminal biotin; C-terminal acid).
T2 construct: control peptide without PC
T2 peptide: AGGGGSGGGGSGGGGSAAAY
As for the experimental part:
as §1, §2

BSA, sequence (P02769 25-607 limits assumed): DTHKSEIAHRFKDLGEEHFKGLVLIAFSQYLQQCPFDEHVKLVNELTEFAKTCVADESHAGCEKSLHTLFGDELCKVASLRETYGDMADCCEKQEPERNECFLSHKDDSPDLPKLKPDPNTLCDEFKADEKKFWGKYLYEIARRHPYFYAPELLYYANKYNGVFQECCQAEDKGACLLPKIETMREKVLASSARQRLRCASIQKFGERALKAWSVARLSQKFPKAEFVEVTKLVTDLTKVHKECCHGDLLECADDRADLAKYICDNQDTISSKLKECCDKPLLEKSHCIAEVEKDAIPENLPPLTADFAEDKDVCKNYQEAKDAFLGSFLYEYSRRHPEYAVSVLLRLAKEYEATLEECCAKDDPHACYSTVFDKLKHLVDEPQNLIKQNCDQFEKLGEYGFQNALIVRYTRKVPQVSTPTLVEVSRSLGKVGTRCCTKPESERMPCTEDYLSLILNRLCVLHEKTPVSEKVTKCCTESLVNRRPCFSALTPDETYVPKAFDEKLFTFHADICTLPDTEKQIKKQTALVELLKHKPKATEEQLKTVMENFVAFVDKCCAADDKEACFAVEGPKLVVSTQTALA

B1: PcOxP_DB01_C08 (scFv, V domains shown)
VH: EVQLLESGGGLVQPGGSLRLSCAASGFTFSDGYMEWVRQAPGKGLEWVAASRNKANDYTTEYADSVKGRFTISRDNSKNTLYLQMNSLRAEDTAVYYCARDYYASSYWYFDVWGQGTLVTVSS
VL: DIQMTQSPSSLSASVGDRVTITCRASESISSSKNKVHYLAWYQQKPGKAPKLLIYGASNRYYGVPSRFSGSGSGTDFTLTISSLQPEDFATYYCAQFYSYPLTFGGGTKVEIK
notes: scFv in periplasmic extract
For the molecule B1, the OD450 with BSA was determined as 0.1 OD450; in test [1] it was 0.38 OD450; in test [2], 0.79 OD450; in test [3] it was 0.05 OD450; in test [4], 0.06 OD450.

B2: PcOxP_DB01_D09 (scFv, V domains shown)
VH: EVQLLESGGGLVQPGGSLRLSCAASGFTESDFYMEWVRQAPGKGLEWVAASRNKANDYTTEYADSVKGRFTISRDNSKNTLYLQMNSLRAEDTAVYYCARDYYGSSYWYFDVWGQGTLVTVSS
VL: DIQMTQSPSSLSASVGDRVTITCTASESLYSAKHKVHYLAWYQQKPGKAPKLLIYGSSNRYIGVPSRFSGSGSGTDFTLTISSLQPEDFATYYCAQFYDYPLTFGGGTKVEIK
notes: scFv in periplasmic extract
As for B2, the OD450 in the test with BSA worked out at 0.07 OD450; in test [1], 0.27 OD450; in test [2], 0.66 OD450; in test [3], 0.05 OD450; in test [4], 0.05 OD450.

B3: PcOxP_DB01_D08 (scFv, V domains shown)
VH: EVQLLESGGGLVQPGGSLRLSCAASGFTFSDAYMEWVRQAPGKGLEWVAASRNKANDYTTEYADSVKGRFTISRDNSKNTLYLQMNSLRAEDTAVYYCARDYYGSSYWYFDSWGQGTLVTVSS
VL: DIQMTQSPSSLSASVGDRVTITCTASESLYSSKHKVHYLAWYQQKPGKAPKLLIYGASNRYIGVPSRFSGSGSGTDFTLTISSLQPEDFATYYCAQFYSYPLTFGGGTKVEIK
notes: scFv in periplasmic extract
On to B3, for which the OD450 was determined as 0.08 OD450 with BSA; 0.58 OD450 in test [1]; 1.08 OD450 in test [2]; 0.05 OD450 in test [3]; 0.05 OD450 in test [4].

B4: PcOxP_DB01_C12 (scFv, V domains shown)
VH: EVQLLESGGGLVQPGGSLRLSCAASGFTFSDFYMEWVRQAPGKGLEWVAASRNKANDYTTELADSVKGRFTISRDNSKNTLYLQMNSLRAEDTAVYYCARDYYGSSYWYFDVWGQGTLVTVSS
VL: DIQMTQSPSSLSASVGDRVTITCTASESLYSSKHKVHYLAWYQQKPGKAPKLLIYGAANRYIGVPSRFSGSGSGTDFTLTISSLQPEDFATYYCAQFYVYPLTFGGGTKVEIK
notes: scFv in periplasmic extract
With B4, the OD450 was 0.08 OD450 with BSA; 0.88 OD450 in test [1]; 1.18 OD450 in test [2]; 0.05 OD450 in test [3]; 0.05 OD450 in test [4].

B5: PcOxP_DB01_D02 (scFv, V domains shown)
VH: EVQLLESGGGLVQPGGSLRLSCAASGFEFSDFYMEWVRQAPGKGLEWVAASRGKGNSYTTEYADSVKGRFTISRDNSKNTLYLQMNSLRAEDTAVYYCARDYYGSSYWYFDVWGQGTLVTVSS
VL: DIQMTQSPSSLSASVGDRVTITCTASESLYSSKHKVHYLAWYQQKPGKAPKLLIYGASNRYIGVPSRFSGSGSGTDFTLTISSLQPEDFATYYCGQFYSYPLTFGGGTKVEIK
notes: scFv in periplasmic extract
On to B5, for which the OD450 with BSA is 0.09 OD450; in test [1], 0.56 OD450; in test [2], 1.27 OD450; in test [3] it was 0.05 OD450; in test [4], 0.05 OD450.

B6: PcOxP_DB01_D05 (scFv, V domains shown)
VH: EVQLLESGGGLVQPGGSLRLSCAASGFTFSDGYMEWVRQAPGKGLEWVAASRNKANDYTTEYADSVKGRFTISRDNSKNTLYLQMNSLRAEDTAVYYCARDYYGSPYWYFDVWGQGTLVTVSS
VL: DIQMTQSPSSLSASVGDRVTITCTASESLYSSKHKVHYLAWYQQKPGKAPKLLIYGASNRYVGVPSRFSGSGSGTDFTLTISSLQPEDFATYYCAQFYSYPLTFGGGTKVEIK
notes: scFv in periplasmic extract
In the case of B6, the OD450 with BSA amounted to 0.1 OD450; in test [1], 0.87 OD450; in test [2] it was 1.56 OD450; in test [3] it was 0.05 OD450; in test [4] it was 0.06 OD450.
